Assay results reported in the supplement of paper PMC9112550, “Optimization of the antimicrobial peptide Bac7 by deep mutational scanning” (BMC Biology, 2022).

tested on: Escherichia coli TOP10; experiment: shrunken log2 fold change of peptide-encoding DNA abundance (4.5 h post-induction vs induction); higher = less antimicrobial activity (less host growth inhibition); details: time post-induction: 4.5 h; library: site-saturation at positions 5, 18, 19, 20
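Note: peptides expressed intracellularly from a pBAD plasmid library in pooled LB shake-flask culture, induced with 0.3% L-arabinose, DNA abundance read by NGS, three biological replicates, DESeq2 with apeglm shrinkage.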

Sequence	shrunken log2 fold change
RRIRARPPRLPRPRPRPPLQPRP	0.557
RRIRVRPPRLPRPRPRPEGHPRP	-0.0324
RRIRHRPPRLPRPRPRPFSNPRP	-1.09
RRIRSRPPRLPRPRPRPVGEPRP	0.332
RRIRQRPPRLPRPRPRPRCNPRP	-0.515
RRIRKRPPRLPRPRPRPYEVPRP	-0.205
RRIRNRPPRLPRPRPRPHPKPRP	0.187
RRIRYRPPRLPRPRPRPLKNPRP	-0.337
RRIRVRPPRLPRPRPRPINMPRP	-0.602
RRIRTRPPRLPRPRPRPRGPPRP	1.02
RRIRERPPRLPRPRPRPTVKPRP	-0.218
RRIRWRPPRLPRPRPRPDNTPRP	-0.25
RRIRMRPPRLPRPRPRPWMVPRP	-0.128
RRIRTRPPRLPRPRPRPWCCPRP	-0.227
RRIRPRPPRLPRPRPRPHCWPRP	0.151
RRIRCRPPRLPRPRPRPTEIPRP	-0.146
RRIRDRPPRLPRPRPRPVWMPRP	0.0445
RRIRARPPRLPRPRPRPVNTPRP	-0.0807
RRIRQRPPRLPRPRPRPMTLPRP	0.106
RRIRPRPPRLPRPRPRPEGVPRP	0.103
RRIRLRPPRLPRPRPRPNNWPRP	-0.275
RRIRCRPPRLPRPRPRPRCDPRP	-0.047
RRIRVRPPRLPRPRPRPSYRPRP	-0.775
RRIRERPPRLPRPRPRPHIDPRP	-0.34
RRIRVRPPRLPRPRPRPGLYPRP	-0.384

Sequence	shrunken log2 fold change
RRIRQRPPRLPRPRPRPCHLPRP	-0.0134
RRIRGRPPRLPRPRPRPYYAPRP	-0.242
RRIRNRPPRLPRPRPRPIDCPRP	-0.248
RRIRERPPRLPRPRPRPTFWPRP	-0.0352
RRIRSRPPRLPRPRPRPEIAPRP	0.00181
RRIRARPPRLPRPRPRPQEIPRP	0.107
RRIRRRPPRLPRPRPRPFWGPRP	0.463
RRIRGRPPRLPRPRPRPEHWPRP	0.378
RRIRVRPPRLPRPRPRPTCPPRP	0.243
RRIRRRPPRLPRPRPRPRVKPRP	0.699
RRIRNRPPRLPRPRPRPYIQPRP	-0.244
RRIRMRPPRLPRPRPRPGPHPRP	0.256
RRIRPRPPRLPRPRPRPMSLPRP	-0.769
RRIRIRPPRLPRPRPRPGAWPRP	0.215
RRIRLRPPRLPRPRPRPMTAPRP	0.0114
RRIRIRPPRLPRPRPRPTSWPRP	0.0769
RRIRARPPRLPRPRPRPPEHPRP	0.606
RRIRRRPPRLPRPRPRPIQRPRP	0.168
RRIRCRPPRLPRPRPRPDSFPRP	0.211
RRIRFRPPRLPRPRPRPWQIPRP	-0.0302
RRIRWRPPRLPRPRPRPEQYPRP	-0.171
RRIRSRPPRLPRPRPRPRQDPRP	0.127
RRIRLRPPRLPRPRPRPQNVPRP	-0.523
RRIRDRPPRLPRPRPRPHDCPRP	-0.0662
RRIRCRPPRLPRPRPRPQEQPRP	0.0612

Sequence	shrunken log2 fold change
RRIRHRPPRLPRPRPRPDCEPRP	-0.0807
RRIRWRPPRLPRPRPRPSTWPRP	-0.148
RRIRNRPPRLPRPRPRPIDEPRP	-0.0586
RRIRYRPPRLPRPRPRPPHMPRP	-0.656
RRIRYRPPRLPRPRPRPNWWPRP	-0.00469
RRIRQRPPRLPRPRPRPNMAPRP	-0.173
RRIRLRPPRLPRPRPRPSFEPRP	0.0552
RRIRVRPPRLPRPRPRPFPIPRP	-0.39
RRIRARPPRLPRPRPRPVVVPRP	0.652
RRIRKRPPRLPRPRPRPLVHPRP	0.0415
RRIRHRPPRLPRPRPRPFNIPRP	0.0518
RRIRSRPPRLPRPRPRPSYCPRP	-1.07
RRIRFRPPRLPRPRPRPWYYPRP	-0.735
RRIRHRPPRLPRPRPRPGHNPRP	-0.166
RRIRTRPPRLPRPRPRPRLKPRP	0.0991
RRIRHRPPRLPRPRPRPYCKPRP	-1.02
RRIRQRPPRLPRPRPRPTRPPRP	1.05
RRIRRRPPRLPRPRPRPTTCPRP	0.379
RRIRRRPPRLPRPRPRPPMDPRP	0.385
RRIRCRPPRLPRPRPRPVQEPRP	0.286
RRIRGRPPRLPRPRPRPCCKPRP	-0.108
RRIRERPPRLPRPRPRPPMRPRP	0.779
RRIRPRPPRLPRPRPRPSKCPRP	-0.0749
RRIRPRPPRLPRPRPRPMRIPRP	0.189
RRIRNRPPRLPRPRPRPGQGPRP	-0.0357
